Assay: soluble on expression in E. coli; label from the status in PepcDB or PDB records

| Sequence | soluble on expression in E. coli |
| --- | --- |
| MAHHHHHHMLRCAPSKLFRATPLLRVWAAEEDDASAPRTTFRNVRPGRLLRLWRQMRHRAWMLYAWDEEWVSPMQEGYLHQQRLEQVCFAPLSAYGVVPGSYCDPLLYNTKSTSPFRWHVANVQGDIVGHWYMDADELFRIEDWQPREPDDPLEMFPRPPPMLLRWDESVDEHGNRAFRYRYHYDMMGPTGKWEAYPRCPFSHLYHGGPDQHGRAEGYGFQQGHLLRCDEAEEEVLRRIMEGEDREWEMVKRTEAVQEPWSYPGKIRPRDFEGAVERAKARFRERVRHGKETDPSEDPEYDLVQASEYVEPRDGRRAEWRHLWASGRKPGESLPFHVAFNDGLCFEGNEGGPPAHPAAHYEAAHYEAPYGRYEDADAAAARAAEAAHNAACEQSLSEAMARHRRLFGDTSGAPSGPKAPLPTGCRPMRCAPGPPLPSGRSRSSGARAVGSGPVCGAGARDGESEGEGRGGEAPLGYGARACSWRRREGWV | not soluble |
| MAHHHHHHMLRCSCARRRGVYHNAPSVYPFVKPFHDTPYDQDRGRHDSVGQRYRKNSWPEWMDNGADGTGYGIGLHRTHPLSRLRGNLKRSPSHVPRVLGMMIQGVWHKSGVKLYFRGGKPPNPSVHPYLTGEPCPLYGWKVTDESVIRQFNMPSIDGTNFRYKPYVALQERKIMGVQVPSDSVSLASGRTTESKPLAKRLFFWR | not soluble |
| MAHHHHHHMLRRTVARFMASEAIGPAHPDILWGFMDGRYAGPGWVSWIKQLPVETLTMQGGTSMTNMNDRAGVILDPEDPRHSMALIQWGPMNHYDGAFMQLSYGDYGEIKKGSRLMQVLYDHYLEPFSMNRVCAQLYFYQKVPNNYHASVEASAEYIGQTASLVGQVVVGMGSVIMEGVTVKGDTNCVYIAEGVQVMENTCIVSDAPTDLLAYQRHEAINPYQQWDGMDGVCRIMQNTMIEPNCFLDSCSIGPFNRIGHNTKILKGVTTGTMVHILPGSVVTADTRIGDGELWGGAPAVKLGKVSKFEWKRPYYASLLHKECVVESYRNMSRYGDQVVYFQDEMGKLDTLMLQFESDITPSVKAKMKEFVQGREPFHHMLTRITQGWSPANRPDDKNYNLCPPLPAVKLFAEHNNDSSDSSLHGTYMNITNIFNDFRW | not soluble |
| MAHHHHHHMLSRVAAVKAPRTHNRRRVTGSSGRTREGGESEPRRPNMSRRVFPSAVLLLLVTMMCCDRGAATAQVEKATDASTPSGSALTGAITAEGSASGGVERPQRVDLFVPQTKQVLQKTGTDSGRRDSFVSPSLVSAGGVIAAFAEGHINAKNPIPNQLSRLLMLLRSTSTLRGNGPLLLKRSIKKEWSARTVLGKAEGNESFDVVRHPTTTMKGNKMFLLAGSTALSDLNGSWKEGSLEIKLVVGEVTKPTDSEQSKRIEWGEIKSPLNGSTLAAHKGNLTECLASGGSGVLMEDGTLVFSLMAVNEKNDGVYSMIIYSKDNGSTWALSEDISPAKCLNPRITEWEGSLLMIVDCENDQRV | not soluble |
| MAHHHHHHMLVRSITKCVVPLIKATSYTSSYIVEHPPTPVRLTSMLPLHNKSMPTPLLDPERLQEISCGTGQPAQRGRRKPLVWKRRKPWFDHQWSLDLQRIKKGPETPHFPDGTPFTQIRSFQSFAGRSWKINAGRRRKIRLSLKRGRRKLL | not soluble |
| MAHHHHHHMMAHRCAFQTIASPALTQREVEFTKSAWIAGLRPDQRGAQQLREVNVDFPLLSRDVSCVRCGGTIVTAAIACELVEPFPCRPKHGIIDFSVRQPYTERDSSAKTAELKKLTAFLERLIKGGGVVDTEGLCVLPGRRVWSISVDVTVLNDEGNVTDVAVWATVAVLLHYRRPELTIRGDSVILHPTHERDPVPLSIHHTPLSFSFAITMAPGDRNKLARGRRDSQEALEVVVDPTFAEATAASSSVVVAVNAEGQVCSVSKSEGSCIHLNEVNHCMETASLLAPHILSLIRDAMAAHDKRRQEVLKRMFLWAQKRSGVTSEATEPEPAKKLKTET | not soluble |
| MAHHHHHHMNEEILKNIKVNNNFLEFEEIIKDINTPFNFIDLVEIPCVPVVDLYGLSLLNNEAYLEYKSGLREDKLNADDEIKLTLFFAVKLYKKNIIRIKFPSYYDIIETLKFDPVSVTIGLFNQFYFETAYELCNLLPINEWPSTNFYDILRKAEKTRIHFLINNKTKLNSYFLEGLTNKEKKIYKYFLEGTSKEREKLNKETTLFHFYEKEKC | not soluble |
| MAHHHHHHMNGMRAYNLGSRRYHDVLRLQEAIFRKKIDRQMRYIRGDKSARLIPNVVLLVEHSSPVYTIGRRDTSNGIKAGCAAEVVKTRRGGGVTFHGPGQVTMYPIVNVQVLWKQCTASDKPRSPIEWFSSVLEQAMINVAGEYNIPAHRGRVGVWSDSWGDVAPRKMGFVGLQLGNWVSMHGAGLNVSNNLLYFNDIVMCEMPNEAATSLVEELRLRGLSGAEPTPHVIAPRLLHHFLLSMQQQESVVNTELVDLSIDGSWERSILCELE | not soluble |
| MAHHHHHHMNIEDDENKEKKETCLSYIKKINMSEIINDEAIGKRAEYLWNLALSAVYINVKLSMKYITLIKKITKNNLLFDNICCHYCNLIYIPFYNCKITHSPNQGKATYTCLLCKRKKKINLQHLSKHKNIYPLKHSDKHKPSTSNLSNVNFFLINEIDNYEIKKNNVPLNKDDTSNTENQLITKQENKNEDILKDVSCADMQKEEHIINQDNIINQDNIINQDNIINQDNIINQDNIINQDNIINQDNIINQDNIINQDNIINQDNIINKNDMYQNLSYLFRIDYGINKDDTQKGNEIYDKSIVNESEKCKSVHIENNKNDDNKNMNSESKNIKNERKRKSQNNNIAQNKNQGFPNVNMNDGFLNFNKSKKKKGKSILDIL | not soluble |
| MAHHHHHHMNPMDALIARAAAEERQQAKMKQKSTRVSGESDLDHPSPSAAFPDSVISRGERASILCYVDPAATTTSSNFSVRRLRTFSACPTFKGGMIMRLTMCHDAQHLTVAFESGHIVLARYRDADVIDMADEPGEVCHAGGSMSVARVRNVTRAFADSALACWWSGRRMLACSSEGGMHCYDVSATAEGLLEAHLVWSVTLRKGIGSVFLQRNLVVAGCWDSTLRLYDARDGRLVSILSYQRETINEVRAAPPSIARVAAFGFDVRQPRLYAGQPGALSTKIPACIASNSKAVTQGNLPQFSESPLRETYVAGTPTPHSSSGSLAAEEQLVYLFASASKACTVALWRVDLGLVVEQTAREAIAAQTV | not soluble |
| MAHHHHHHMNRGCLLGEYTGRCLGESAHVRSNLICALCCVTRSQIIYIYIYIYFAVVVEEVPIVTCTNIIMSSVVSRREETHFCLRYFRIPSNKKNVFSLLYRQLLFNSLINHCF | not soluble |
| MAHHHHHHMNRIPAATRNAPMYATAMSQFAVCRQPWNEYISLLTKDDAQPFHTTPQEKPAYRGRKRGREGWLFGQQVQLHYHRFPDEQLFTNLTRWRMGDTVGDVAIQQFRNAQPFDIEDKDPQGFQRPAPEVYMKLNYKNPATISRFLTRTGHMYPQDIMPLNPEAVVKLRVAKAQAIRIGLYPRFGNPFWFRSQSFRPKAYQENYDPTTYSTKHTMEHFAYNWVQTDRIRQYFKGLEELHQSRRATASSGGGGVTSEHKQQSQLYALDNMSIEMHRNAPSYRADVERSIKKPTVPGLMSTKGMKKKFHNLYSSTSTKRMGFSNPTLGIKKV | not soluble |
| MAHHHHHHMPGFADSFNGVAVGSSTMLTRGTHSSQDAVHHTDTATAAEWRALYGASADMMNSTAHTYRACGAGVSYMTPIFHLTANDVTILSMEHNNHCRLLGIATSKNQIFVTWTQVMPVIENMGMLRAPDDDLFGGEQATPVDERLLEWDPATMSILIDELPYTCTELSWAPWQQGIYLAGLCPGHGIRLYRYSHGNWALDDCIRSTESVSCSISTNFTVACACRRGRVELWVRGSTASGTAVAPGPSPSLSAGDSTATNGGDGVSHTSWVLCRVLTLPFSEDDNGGSRTHDGDRSGGAGSPSAVAARHRRRDILGVAWVESGALLAAGDQGGSVYVVAATQDSTRLGEVVYHQLPSALCGPCKQVAWSPSSGRSFLCLAMVFTTCVRLVLFRRPSFMNAAGLPHAARSVGGSGGGRMGWAHSSVAPIAASSLEVLAMTQVPCEEVAKLSWNNTGTRFVTAHLDSSVNIWAVDFRYRHPVKGDGANATSGREEANTLHSVDSARMDRQVETSVFAAAGEERLGIVVSVQCTSAVHPYHAVSK | not soluble |
| MAHHHHHHMPLLTRGQRRLLEYVAHDGGTKGLKRRRMEDVAPVLHKRKQKWTHKFTTKTASADASLAEVPLSSEVLEFLREYCPKVPRKLRQSQLRVISDLSGAFGGNSEKEEGETFTVKRVELKENAEVFAVVALAALQRRALWSGSTPQGASLFVLVETDADAAALAAHMGNTYKMTRTLVLDGSRFPTFPAVEKDDAATATTLAERTALVIASLQAFVTVDARSAIWKFIGAYAIWLKSSKPPALLQEMADGTRSELEENCAGSGGVVWDMPRWLLSLLHRESPSLHP | not soluble |
| MAHHHHHHMPNNDSHDAQLLRHYAQFFPNVLFTSEEEMEKYCQDARPDAVKKVLDLPEGEEVPEDAMNDPRAHLYILKHIVGRNATTAAFVALRGSDKQKVVAKFIMLNDEKQAAYARSEVHCLAACDHFGIVKHYDDLKSEDKLLLIMEYGSGGDLNKQIKQRLKERLPFKEHEAGLLFYQIVLALDEVHSRKMMHRDLKSANIFLMPTGIIKLGDFGFSKQYTDSVSLDVGSSFCGTPYYLAPELWERKRYSKKADMWSLGVILYELLTLHRPFKGPSQREIMQQVLYGNYDPFPCGVSDGMKAVMEPLLSKDPALRPTTTQLLHTELMKYVANIFEEIVRNSEVIEKHDKERILRQLAESRAKAPPPNSIQAGAVSNDVVREGYLLKYSSDMKWKKRYFSIKNGQLRISLTDNPEKDGVSPKSASLETVNDVFPVPEAYCRSNPHQLVIWFTNGQKIIAMAKSAEERDQWISDFQRACGM | soluble |
| MAHHHHHHMPRKETKKRKRAPSSAKESVSSTDEQGKRGGAFSKFKEFDVSELLQKPQEVPEIQPVVEEQPCSPCDEVVADPPPLTATDTVEATSEEPAAPIPQLIPPEPLKDLPPDEEFVPLPTIQVVPMMNRALEAQSGLLKEPAPPASIQRVTQPGALPPAMPTALMELLSG | soluble |
| MAHHHHHHMPSVATASTRAVLAYPTDDAKLLVELTPTDRVAGGGSCGGFSGGGPMTQSDLGVGGSRMLQSLLVTRNVRDHLLDLRFSEAALSAQVTLQGDTVRDLIADITAAQSTEVSIRIDPKVGVILRGEGGPYGEVEAHVHATSEALLSLSREQSASTRVYTHHLALACGARGGTGGGGSSGSSAGAGGTGGGRLRGTGASVRDGRLSNADYILMGLAASAAGAGSSGGGGGAAVGTLFGGFERLTLQINAQRQLSVLHTQRDHELKVFVTVVVMPLSSVCDML | not soluble |
| MAHHHHHHMQETQELRCATTQMAPAVIFPLPPPLRGSYIDRKPTAASFNEHHATASFRHHMIASADVSHRPRHFYFASGTRNDTGTRSVKEGERKQLKQQTNVEVDSVAYGDQLDELSARWAAKFYGQVTFGPRNYPYPSSRWLARRFQMKKHRIIKRFRFRRYKLAAVANLPFAKMIRVGMLPELKSSKTKRGDVVDPTLSGQLVSAVKNTGEKRKGQRTRPKSKYQV | soluble |
| MAHHHHHHMQKHNIKLNQNQDISQLFHDEVPLFDNSITSKDKEVIETLSEIYSIVITLDHVEKAYLKDSIDDTQYTNTVDKLLKQFKVYLNSQNKEEINKHFQSIEAFCDTYNITASNAITRLERGIPITAEHAISTTTSAPSGDNKQSSSSDKK | soluble |
